The values below are quoted from earlier work in patent US20240082365A1, “MULTIDISCIPLINARY TREATMENT OF CHRONIC DISEASE USING REGENERATIVE CELLS AND TECHNOLOGIES” (priority 2022, published 2024).

Data set [1] relates to metastatic renal cell carcinoma (RCC) and metastatic melanoma. The conditions noted are these: high-dose, e.g. IV bolus 600,000 IU/kg every 8 hours for up to 14 doses.
Where [2] appears, read: subcutaneous, one-compartment model.

aldesleukin: the antitumor activity entry in data set [1] is on record as “demonstrated antitumor activity”. Moreover, for the setting “after SC administration”, the “time at which peak plasma levels are reached” value is 2 to 6 h. For the same substance, under setting [2], the absorption half-life is 0.75 h and the elimination half-life is 3 to 5 h.
